In patent US20250263468A1 (CELLTRION, published 2025):
Changes are numbered by the printed parent chain.

B1: antibody No. 32 (fully human antibody, full IgG) (antibody, V domains shown)
VH: EVQLVQSGGGLIQPGGSLRLSCAASEFIVSSNYMTWVRQAPGKGLEWVSIIYPGGSTYYADSVKGRFTISRDNSKNTLYLRMNSLRAEDTAVYYCARDLPLTGTTLDYWGQGTLVTVSS
VL: not shown
B2: antibody No. 54 (fully human antibody, full IgG) (antibody, V domains shown)
VH: EVQLLESGGGLVQPGRSLRLSCAASGFNFDDYAMHWVRQAPGKGLEWVSGISWNSGTIGYADSVKGRFIISRDNAKNSLYLQMRSLKPEDTALYYCAKEELGPYSNRWYSSSDGMDVWGQGTTVTVSS
VL: ELVLTQPPSVSGAPGQRVTISCTGSSSNIGAGYDVHWYQQLPGTAPKLLIYGNSNRPSGVPDRFSGSKSGTSASLAITGLQAEDEADYYCQSYDSSLSGVVFGGGTKLTVL
B3: antibody No. 34 (fully human antibody, full IgG) (antibody, V domains shown)
VH: QVQLVQSGAEVKKPGSSVKVSCKTSGGTFSNYPLTWVRQAPGQGLEWLGGIIPIIGATNYAQKFQGRVTITADESTSTAFMELSSLRSEDTAVYYCARGRGYSGYGAAYYFDYWGQGTLVTVSS
VL: B2 VL with V3E, V100W, L108V
B4: antibody No. 45 (fully human antibody, full IgG) (antibody, V domains shown)
VH: EVQLVQSGAEVKKPGSSVKVSCKASGGTFSSYDISWVRQAPGQGLEWMGGIIPILGIPNYAQKFQGRVTITADESTSTAYMELSSLRSEDTAVYYCARSRGYSGYGANWYFDLWGRGTLVTVSS
VL: B2 VL with L4V, D87E, V100P
B5: antibody No. 48 (fully human antibody, full IgG) (antibody, V domains shown)
VH: EVQLVQSGGGLIQPGGSLRLSCAASGFTVSSNYMSWVRQPPGKGLEWVSVIYPGGSTFFADSVQGRFTISRDNSKNTLYLQMNSLRAEDTAVYYCARSYDFLTDYTDAFDIWGQGTMVTVSS
VL: ELELTQPPSVSGAPGQRVTISCTGSSSNIGAGYDVHWYQQLPGTAPKLLIYGNSNRPSGVPDRFSGSKSGTSASLAITGLQAEDEADYYCQSYDSSLSGLWVFGGGTKLTVQ
B6: antibody No. 53 (fully human antibody, full IgG) (antibody, V domains shown)
VH: B5 VH
VL: not shown
B7: antibody No. 81 (fully human antibody, full IgG) (antibody, V domains shown)
VH: QVQLVQSGGGVVQPGRSLRLSCAASGFTFSSFAMHWVRQAPGKGLEWVAVISFDGSNKYYADSVKGQFTISRDNSKNTLYLQMNSLRAEDTAVYYCARGDYYGSGSYYNPSPFFDYWGQGTLVTVSS
VL: not shown
B8: antibody No. 37 (fully human antibody, full IgG) (antibody, V domains shown)
VH: EVQLVQSGAEVKKPGESLKISCRGSGYSFTSHWIAWVRQMPGKGLEWMGIIYPGDSDSRYSPSFQGQVTISADKSISTAYLQWSSLKASDTAIYYCARGPNLYNWFDSWGQGTLVTVSS
VL: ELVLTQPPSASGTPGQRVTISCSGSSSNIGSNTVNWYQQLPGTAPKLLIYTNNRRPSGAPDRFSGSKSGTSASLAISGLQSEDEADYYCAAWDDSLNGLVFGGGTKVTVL
B9: antibody No. 61 (fully human antibody, full IgG) (antibody, V domains shown)
VH: EVQLLESGGALVQPGRSLRLSCAASGFTFDDYAMHWVRQGPGKGLEWVSGTTWNSGTIGYADSVKGRFIISRDNAENSLYLQMNSLRPEDTALYYCAKDIGSGDRPDAFHLWGQGTMVTVSS
VL: ELVLTQPPSVSVAPGKTARITCGGNNIGSKSVHWYQQKPGQAPVLVVYDDSDRPSGIPERFSGSNSGNTATLTISRVEAGDEADYYCQVWDSSSDRVVFGGGTKVTVL
B10: antibody No. 33 (fully human antibody, full IgG) (antibody, V domains shown)
VH: EVQLVESGGGVVQPGRSLRLSCAASGLTFSDYGMHWVRQAPGKGLEWVAAISYDGSNKYYADSVKGRFTISRDNSKNTVYLQMNSLRAEDTAVYYCVRDSGLYGSGWSTYQYYAMDVWGQGTTVTVSS
VL: B9 VL with P7S, R96H
B11: antibody No. 59 (fully human antibody, full IgG) (antibody, V domains shown)
VH: QVQLQESGPGLVKPSETLSLTCTVSGDSISGSSYYWGWIRQPPGKGLEWIGNIFYSGSTYYNPSLKSRVTISVDTPKNQFSLKLSSVTAADTAMYYCARGSRGYYDILTGYSTGGFDYWGQGTLVTVSS
VL: ELQMTQSPATLSVSPGEGATLSCRASQSVSSNLAWYQHKPGQAPRLLIYDASTRATGIPARFSGSGSGTEFTLTISSLQSEDFAVYYCQQYNNWPLTFGGGTKLEIK

biological target: SARS-CoV-2 spike D614 (pseudovirus) (SARS-CoV-2, UniProt P0DTC2 14-1273); test: cell-based or functional assay

Row | Binder | IC50, pseudovirus neutralization
1 | B1 | 4.34 ng/mL

biological target: T1, SARS-CoV-2 virus surface protein (RBD), wild type (SARS-CoV-2, UniProt P0DTC2 319-536); test: BLI (Octet), full IgG against SARS-CoV-2 RBD
Procedure: The binding affinity (equilibrium dissociation constant, KD) of each fully human antibody to SARS-CoV-2 RBD was evaluated by biolayer interference (BLI) assay using Octet.

Row | Binder | Kd
2 | B2 | 0.0313 nM
3 | B3 | 0.185 nM
4 | B4 | 0.0708 nM
5 | B5 | 0.184 nM
6 | B6 | 3.39 nM
7 | B7 | 0.0428 nM
8 | B8 | 0.057 nM
9 | B9 | 0.0226 nM
10 | B10 | 0.0431 nM
11 | B11 | 0.0496 nM
12 | B1 | 0.147 nM

biological target: T1, SARS-CoV-2 virus surface protein (RBD), …; test: BLI (Octet), full IgG against RBD WT

Row | Binder | Kd | koff | kon
13 | B2 | 0.133 nM | 0.000108 s⁻¹ | 815000 M⁻¹ s⁻¹
14 | B1 | 0.305 nM | 0.000193 s⁻¹ | 633000 M⁻¹ s⁻¹
